Measured values taken from patent publication US9644037B2, “Antibodies that specifically bind ataxia telangiectasia-mutated and RAD3-related kinase phosphorylated at position 1989 and their use” (THE UNITED STATES OF AMERICA, AS REPRESENTED BY THE …, priority 2013, dated 2017).

Columns and labels:
[1] = tested on: ATR pT1989 phospho-peptides conjugated to BSA; assay: ELISA against phospho-peptide-BSA conjugates (bleed, hybridoma and clone screening); assay type: binding, human
Protocol: (§1) The titer results from the pair of rabbits for each peptide antigen were determined in a colorimetric ELISA against BSA-conjugated peptides. Plates were coated with 50ng/well peptide-BSA conjugate in bicarbonate buffer pH 9.6 and incubated at 4° C. overnight, then and blocked with 1% BSA in TBS. Diluted (1:250-1:256,000) rabbit anti-sera (50 ul/well) were added and incubated at room temperature. Plates were washed with Tris-buffered saline with 0.05% Tween (TBST). Anti-rabbit secondary conjugated to alkaline phosphatase was used for detection with p-nitrophenyl phosphate (PNPP) substrate. Plates were read at 405 nm with a plate reader.
Independent screening of blood was conducted. Flat bottom, black, high binding 360 μL plates with clear bottom (VWR catalog #29444-037) were coated with 100 ng/well peptide-BSA conjugate in bicarbonate buffer pH 9.6 (Sigma, catalog # C3041-100CAP) and incubated at 4° C. overnight, then and blocked with ODYSSEY® blocking buffer (LiCor, catalog #927-40010). Diluted (1:250-1:1,000,000) rabbit anti-sera (100 ul/well) were added and incubated at 24 C. Plates were washed with phosphate-buffered saline with 0.05% tween-20 (PBS-T). […] Plates were read at 700 nm with a Licor ODYSSEY® scanner. Images were quantified using Licor ODYSSEY® application software v3.0 (FIGS. 3 and 4).
Cell growth was monitored 2-3 weeks after fusion. […]

[2] = tested on: non-phospho peptide-BSA conjugates; assay: Direct ELISA against non-phospho peptide-BSA conjugates; assay type: binding, human
Protocol: as §1

pT1989 ATR = target: T1, pT1989 ATR (Homo sapiens, UniProt Q13535); assay: Western blot of cell lysates probed with anti-ATR-pT1989 antibodies; assay type: binding
T1 construct: lysates from cells expressing ATR (HT-29, LoVo and DLD-1); endogenous in cells; host or cells: DLD-1 parental, DLD-1 Seckel (Horizon), HT-29, LoVo; with or without gemcitabine
T1 sequence (Q13535 whole entry): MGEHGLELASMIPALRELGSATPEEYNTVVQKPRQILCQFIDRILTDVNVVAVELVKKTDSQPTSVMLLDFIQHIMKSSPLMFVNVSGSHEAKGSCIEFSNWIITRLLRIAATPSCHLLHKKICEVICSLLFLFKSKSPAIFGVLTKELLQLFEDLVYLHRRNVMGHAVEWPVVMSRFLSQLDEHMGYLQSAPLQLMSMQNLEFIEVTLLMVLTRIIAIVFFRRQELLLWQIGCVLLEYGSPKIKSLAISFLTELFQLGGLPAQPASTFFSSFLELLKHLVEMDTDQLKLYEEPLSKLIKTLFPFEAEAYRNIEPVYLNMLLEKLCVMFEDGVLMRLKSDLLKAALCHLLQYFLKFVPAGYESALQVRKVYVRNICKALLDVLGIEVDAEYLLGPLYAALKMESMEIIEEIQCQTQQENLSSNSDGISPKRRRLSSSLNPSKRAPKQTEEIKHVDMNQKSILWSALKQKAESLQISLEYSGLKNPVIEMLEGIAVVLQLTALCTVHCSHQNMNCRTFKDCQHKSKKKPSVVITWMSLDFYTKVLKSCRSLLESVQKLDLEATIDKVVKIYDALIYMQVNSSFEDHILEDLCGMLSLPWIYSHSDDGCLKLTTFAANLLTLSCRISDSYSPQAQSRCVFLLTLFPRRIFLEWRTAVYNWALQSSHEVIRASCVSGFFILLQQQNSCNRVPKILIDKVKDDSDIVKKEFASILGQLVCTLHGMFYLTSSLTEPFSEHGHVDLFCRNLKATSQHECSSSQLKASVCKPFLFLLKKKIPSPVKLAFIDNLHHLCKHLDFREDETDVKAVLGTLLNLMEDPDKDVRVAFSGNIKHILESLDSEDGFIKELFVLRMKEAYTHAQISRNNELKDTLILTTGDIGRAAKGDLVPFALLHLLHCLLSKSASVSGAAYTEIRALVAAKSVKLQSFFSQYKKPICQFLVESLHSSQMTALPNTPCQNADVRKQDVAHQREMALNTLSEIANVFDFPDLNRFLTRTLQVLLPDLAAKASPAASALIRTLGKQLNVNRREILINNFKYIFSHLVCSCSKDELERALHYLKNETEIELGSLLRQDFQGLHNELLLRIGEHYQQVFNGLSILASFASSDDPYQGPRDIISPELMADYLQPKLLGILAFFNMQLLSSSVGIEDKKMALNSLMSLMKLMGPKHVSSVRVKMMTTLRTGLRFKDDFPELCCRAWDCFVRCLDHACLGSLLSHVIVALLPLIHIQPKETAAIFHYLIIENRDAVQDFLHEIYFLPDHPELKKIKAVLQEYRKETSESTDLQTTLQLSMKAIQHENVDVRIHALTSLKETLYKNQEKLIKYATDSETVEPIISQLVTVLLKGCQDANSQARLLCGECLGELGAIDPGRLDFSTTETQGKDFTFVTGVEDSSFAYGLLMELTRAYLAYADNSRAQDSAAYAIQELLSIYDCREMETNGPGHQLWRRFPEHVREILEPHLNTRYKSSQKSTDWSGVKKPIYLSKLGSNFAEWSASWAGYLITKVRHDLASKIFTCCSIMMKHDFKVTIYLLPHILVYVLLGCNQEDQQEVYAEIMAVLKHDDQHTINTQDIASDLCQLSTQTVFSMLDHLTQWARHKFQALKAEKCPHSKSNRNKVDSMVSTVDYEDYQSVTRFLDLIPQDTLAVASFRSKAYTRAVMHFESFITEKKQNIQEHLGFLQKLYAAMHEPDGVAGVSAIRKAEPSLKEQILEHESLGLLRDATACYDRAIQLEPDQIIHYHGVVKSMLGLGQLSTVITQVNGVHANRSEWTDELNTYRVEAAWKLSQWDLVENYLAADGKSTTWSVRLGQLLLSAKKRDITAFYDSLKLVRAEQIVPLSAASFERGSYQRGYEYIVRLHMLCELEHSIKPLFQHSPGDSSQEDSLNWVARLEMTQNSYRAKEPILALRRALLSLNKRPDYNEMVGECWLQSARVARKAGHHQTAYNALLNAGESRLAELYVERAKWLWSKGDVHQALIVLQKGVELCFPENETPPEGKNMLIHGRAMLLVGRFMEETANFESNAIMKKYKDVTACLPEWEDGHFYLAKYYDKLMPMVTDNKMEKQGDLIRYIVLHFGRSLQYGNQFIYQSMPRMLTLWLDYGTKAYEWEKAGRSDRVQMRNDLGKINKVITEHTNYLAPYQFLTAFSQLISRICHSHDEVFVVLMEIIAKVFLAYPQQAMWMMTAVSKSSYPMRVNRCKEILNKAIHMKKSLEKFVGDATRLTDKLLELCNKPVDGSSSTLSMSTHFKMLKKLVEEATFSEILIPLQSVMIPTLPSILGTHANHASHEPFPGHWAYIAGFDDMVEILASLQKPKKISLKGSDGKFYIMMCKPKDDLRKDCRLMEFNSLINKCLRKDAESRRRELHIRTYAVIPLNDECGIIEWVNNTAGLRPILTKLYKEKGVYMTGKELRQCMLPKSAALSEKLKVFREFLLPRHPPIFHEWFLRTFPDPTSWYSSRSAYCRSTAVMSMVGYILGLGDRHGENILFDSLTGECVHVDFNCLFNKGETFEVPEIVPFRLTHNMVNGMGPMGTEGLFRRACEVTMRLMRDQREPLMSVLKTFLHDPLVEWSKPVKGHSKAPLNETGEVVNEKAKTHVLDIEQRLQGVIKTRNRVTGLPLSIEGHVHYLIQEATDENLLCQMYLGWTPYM
Protocol: Cell growth was monitored 2-3 weeks after fusion. Hybridoma supernatants were screened by standard colorimetric ELISA against BSA-conjugated peptides as described in section C. The screening process consisted of a Primary screen on 40 plates (using bleed 2 of E5571 at 1:100 dilution as a Positive control) clones (44) with O.D. greater than 0.5 were considered putatively positive and were further expanded to 24-well plate. Confirmatory screen was performed and 6 clones were confirmed positive against phospho-specific peptides (Table 4). Additional screening was performed by ELISA using the same assay as for bleed screening (FIG. 5). Western blotting was done on selected clones #7, 27 and 35 for subcloning (FIG. 6). […]
Details for lysate preparation and Western blotting are given in Example I, section E. The antibody detected a single band at about 250 kDa consistent with the predicted molecular weight (MW) for ATR. The antibody also detected an increase in phospho-ATR (pT1989) upon gemcitabine (SIGMA) treatment which is known to increase ATR activity (Mol. Pharmacol. (2005), 68, 1636-1644). […]
Cells were treated for 4 hours with either vehicle (DMSO, 0.01%), 150 nM Gemcitabine (Sigma), 1 uM ATR inhibitor VE-821 or combination of drugs. The antibody detected a single band at about 250 kDa consistent with the predicted MW for ATR. […]

[3] = target: T2, pT1989ATR foci in cell nuclei (Homo sapiens, UniProt Q13535); assay: Immunofluorescence assay (IFA) on FFPE cells, antibody performance; assay type: binding
T2 construct: lysates from cells expressing ATR (HT-29, LoVo and DLD-1); endogenous in cells; host or cells: DLD-1 parental, DLD-1 Seckel (Horizon), HT-29, LoVo; with or without gemcitabine
T2 sequence (Q13535 whole entry): as above
Protocol: Subclones were screened by several assays. Screening was performed by enzyme-linked immunosorbant assay (ELISA) and Western blot for subclones of clones #7, 27 and 35 for subcloning. Subclones of clone #7 were then tested in an immunofluroescent (IFA) assay. Clone #7 was then tested in IFA assay. Formalin fixed paraffin embedded (FFPE) blocks were prepared from DLD-1 cells and DLD-1 Seckel cells treated with and without gemcitabine treatment (100 nM for 4 h). Slides were stained using neat hybridomas supernatants and imaged at 20×.
Formalin fixed paraffin embedded (FFPE) pellets were generated using cells expressing WT ATR (HT29, DLD-1 Parental) or mutated ATR (DLD-1 Seckel (Horizon)), with and without gemcitabine (SIGMA) treatment to induce ATR phosphorylation at pT1989 (Mol. Pharmacol. 2005, 68, 1636-1644). Cells were harvested by trypsinization, transferred into a sterile 50 ml conical centrifuge tubes with media containing 10% serum and pelleted at 1000×g for 5 minutes. Medium was replaced with fresh serum containing medium and centrifuged again at 1000×g, 5 minutes. All but 1 ml (approximately) of medium was removed and the pellet was re-suspended by flicking the tube. Suspended cells were transferred using a 2 ml pipette into a clean 1.5 ml conical Eppendorf tube. Cells were pelleted for 30 seconds at 8,000 rpm in an Eppendorf micro centrifuge. […]

- binding to phosphopeptide-BSA conjugates ([1]; peptide conjugated at C term or N-term to BSA): bound the phosphopeptide
- specificity and sensitivity in Western blot (pT1989 ATR): specific for pT1989 ATR
- detection of pATR in Western blot (pT1989 ATR; antibody dilution 1:50, DLD1 lysates): detected pATR specifically
- suitability for pharmacodynamic IFA assay applications [3]: successfully used
B1: Clone 7A7: subclone of hybridoma 7; rabbit monoclonal antibody that specifically binds pT1989 ATR (antibody)
heavy: QSVEESGGRLVAPGTPLTLTCTVSGIDLMYNAMNWVRQAPGKGLEFIGMIGSGGNTVYASWAKGRFTISKTSTTVGLKMTSLTQEDTATYFCAREGSGGSMDFWGPGTLVTVSSGQPKAPSVFPLAPCCGDTPSSTVTLGCLVKGYLPEPVTVTWNSGTLTNGVRTFPSVRQSSGLYSLSSVVSVTSSSQPVTCNVAHPATNTKVDKTVAPSTCSKPTCPPPELLGGPSVFIFPPKPKDTLMISRTPEVTCVVVDVSQDDPEVQFTWYINNEQVRTARPPLREQQFNSTIRVVSTLPIAHQDWLRGKEFKCKVHNKALPAPIEKTISKARGQPLEPKVYTMGPPREELSSRSVSLTCMINGFYPSDISVEWEKNGKAEDNYKTTPAVLDSDGSYFLYSKLSVPTSEWQRGDVFTCSVMHEALHNHYTQKSISRSPGK
light: ALVMTQSPSSVSAAVGGTVTITCQASQSLYNNNYLAWFQQKPGQRPKLLIYKASTLASGVPSRFKGSGSGTQFTLTISDLECEDAATYYCLGEYKDNVDDGNAFGGGTEVVVEGDPVAPTVLIFPPAADQVATGTVTIVCVANKYFPDVTVTWEVDGTTQTTGIENSKTPQNSADCTYNLSSTLTLTSTQYNSHKEYTCKVTQGTTSVVQSFNRGDC
- specificity, titers for BSA conjugated phosphorylated and non-phosphorylated peptides ([1]; FIG. 5C): specific for the phosphorylated polypeptides
- cross-reactivity with non-phospho peptide-BSA conjugates [2]: did not cross-react
